Where two headings read alike, the source gives them in different places.
Assays:
[1] = target: Vδ1 TCR on human Vδ1-positive γδ T cells (human), A0A1B0; conditions: scale: nM
[2] = target: Vδ1 TCR on human Vδ1-positive γδ T cells (human), A0A1B0
[3] = target: Vδ1 TCR on human Vδ1-positive γδ T cells (human), A0A1B0; remark: listed apart in the source
[4] = target: Vδ1 TCR on human Vδ1-positive γδ T cells (human), A0A1B0; remark: listed apart in the source
[5] = target: Vδ1 TCR on human Vδ1-positive γδ T cells (human), A0A1B0; remark: listed apart in the source

Sequence of Vδ1 TCR on human Vδ1-positive γδ T cells (human), A0A1B0 (A0A1B0 entry or part of it mutant limits assumed): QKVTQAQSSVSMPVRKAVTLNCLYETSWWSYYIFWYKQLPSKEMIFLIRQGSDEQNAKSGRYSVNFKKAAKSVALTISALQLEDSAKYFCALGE

Binder | Vδ1 TCR down-regulation (A375 co-culture): % change (at saturation) [4] [%] | Vδ1 TCR down-regulation (A375 co-culture): EC95 [4] [nM] | Vδ1 TCR down-regulation (A431 co-culture): % change (at saturation) [4] [%] | Vδ1 TCR down-regulation (A431 co-culture): EC95 [4] [nM] | other results
ADT1-7 (parental) (antibody, IgG1, V domains shown) VH: QVQLVESGGGLVKPGGSLRLSCAASGFTFSDYYMSWIRQAPGKGLEWVSYISSSGSTIYYADSVKGRFTISRDNAKNSLYLQMNSLRAEDTAVYYCARVDYADAFDIWGQGTLVTVSS VL: ASDIQMTQSPSSLSASVGDRVTIACRAGQSIGTYLNWYQQKPGKAPKLLIYVASSLQSGVPSRFSGSGSGTEFTLTISSLQPEDFATYYCQQSYSTLLTFGRGTKVEIK |  |  |  |  | IC50 of Vδ1 TCR downregulation (% MFI of anti-Vδ1 staining after 2 h, two γδ cell donors) [1]: 22.4
ADT1-4-2/ADT3-2 (bispecific antibody) heavy: EVQLQQSGPGLVKPSQTLSLTCAISGDSVSSKSAAWNWIRQSPSRGLEWLGRTYYRSKWSTDYAASVKSRITINPDTSKNQLSLQLNSVTPEDTAVYYCARTWVGYVDRWGQGTLVTVSSASTKGPSVFPLAPSSKSTSGGTAALGCLVKDYFPEPVTVSWNSGALTSGVHTFPAVLQSSGLYSLSSVVTVPSSSLGTQTYICNVNHKPSNTKVDKKVEPKSCDKTHTCPPCPAPELAGAPSVFLFPPKPKDTLMISRTPEVTCVVVDVSHEDPEVKFNWYVDGVEVHNAKTKPREEQYNSTYRVVSVLTVLHQDWLNGKEYKCKVSNKALPAPIEKTISKAKGQPREPQVYTLPPSRDELEEGPVSLTCLVKGFYPSDIAVEWESTYGPENNYKTTPPVLDSDGSFFLYSKLTVSYWRWYKGNVFSCSVMHEALHNHYTQKSLSLSPG light: DIQMTQSPPALSASVGDRVTITCRASQDINDWLAWYQHKPGKAPKLLIYDASSLESGVPLRFSGSGSGTEFTLTISSLQPDDFATYYCQQKYSAPQVTFGQGTRLEIKRTVAAPSVFIFPPSDEQLKSGTASVVCLLNNFYPREAKVQWKVDNALQSGNSQESVTEQDSKDSTYSLSSTLTLSKADYEKHKVYACEVTHQGLSSPVTKSFNRGEC |  |  |  |  | Vδ1 TCR down-regulation (A375 co-culture): % change (at saturation) [2]: 102%; Vδ1 TCR down-regulation (A375 co-culture): EC50 [2]: 0.00142 nM; Vδ1 TCR down-regulation (A375 co-culture): EC95 [2]: 0.0379 nM; Vδ1 TCR down-regulation (A375 co-culture): % change (at EC100 saturation) [3]: 96.8%; Vδ1 TCR down-regulation (A375 co-culture): EC50 [3]: 0.00095 nM
ADT1-4-2/ADT3-1 (bispecific antibody) heavy: EVQLQQSGPGLVKPSQTLSLTCAISGDSVSSKSAAWNWIRQSPSRGLEWLGRTYYRSKWSTDYAASVKSRITINPDTSKNQLSLQLNSVTPEDTAVYYCARTWVGYVDRWGQGTLVTVSSASTKGPSVFPLAPSSKSTSGGTAALGCLVKDYFPEPVTVSWNSGALTSGVHTFPAVLQSSGLYSLSSVVTVPSSSLGTQTYICNVNHKPSNTKVDKKVEPKSCDKTHTCPPCPAPELAGAPSVFLFPPKPKDTLMISRTPEVTCVVVDVSHEDPEVKFNWYVDGVEVHNAKTKPREEQYNSTYRVVSVLTVLHQDWLNGKEYKCKVSNKALPAPIEKTISKAKGQPREPQVYTLPPSRDETDDGPVSLTCLVKGFYPSDIAVEWESTYGPENNYKTTPPVLDSDGSFFLYSKLTVSYWRWYKGNVFSCSVMHEALHNHYTQKSLSLSPG light: DIQMTQSPPALSASVGDRVTITCRASQDINDWLAWYQHKPGKAPKLLIYDASSLESGVPLRFSGSGSGTEFTLTISSLQPDDFATYYCQQKYSAPQVTFGQGTRLEIKRTVAAPSVFIFPPSDEQLKSGTASVVCLLNNFYPREAKVQWKVDNALQSGNSQESVTEQDSKDSTYSLSSTLTLSKADYEKHKVYACEVTHQGLSSPVTKSFNRGEC | 46 | 0.101 | 81.1 | 0.0079 | Vδ1 TCR down-regulation (A375 co-culture): EC50 (read off the curve) [5]: 0.01 nM
ADT1-4/ADT3-1 (bispecific antibody, human IgG1) heavy: QVQLQQSGPGLVKPSQTLSLTCAISGDSVSSKSAAWNWIRQSPSRGLEWLGRTYYRSKWSTDYAASVKSRITINPDTSKNQLSLQLNSVTPEDTAVYYCARTWSGYVDVWGQGTLVTVSSASTKGPSVFPLAPSSKSTSGGTAALGCLVKDYFPEPVTVSWNSGALTSGVHTFPAVLQSSGLYSLSSVVTVPSSSLGTQTYICNVNHKPSNTKVDKKVEPKSCDKTHTCPPCPAPELAGAPSVFLFPPKPKDTLMISRTPEVTCVVVDVSHEDPEVKFNWYVDGVEVHNAKTKPREEQYNSTYRVVSVLTVLHQDWLNGKEYKCKVSNKALPAPIEKTISKAKGQPREPQVYTLPPSRDETDDGPVSLTCLVKGFYPSDIAVEWESTYGPENNYKTTPPVLDSDGSFFLYSKLTVSYWRWYKGNVFSCSVMHEALHNHYTQKSLSLSPG light: ASDIQMTQSPPALSASVGDRVTITCRASQDINDWLAWYQHKPGKAPKLLIYDASSLESGVPSRFSGSGSGTEFTLTISSLQPDDFATYYCQQSYSTPQVTFGQGTRLEIKRTAAAPSVFIFPPSDEQLKSGTASVVCLLNNFYPREAKVQWKVDNALQSGNSQESVTEQDSKDSTYSLSSTLTLSKADYEKHKLYACEVTHQGLSSPVTKSFNRGEC | 34 | 5.9 | 80.3 | 0.0263 | 

Reference: patent US20240132599A1
